From article doi:10.64898/2025.12.08.692910 (bioRxiv, 2025) come the findings set out here.

To fix the notation:
T1: Helicobacter pylori UreE, wild-type (residues 1-170) (Helicobacter pylori, UniProt Q09064 1-170)
T1 sequence (looked up): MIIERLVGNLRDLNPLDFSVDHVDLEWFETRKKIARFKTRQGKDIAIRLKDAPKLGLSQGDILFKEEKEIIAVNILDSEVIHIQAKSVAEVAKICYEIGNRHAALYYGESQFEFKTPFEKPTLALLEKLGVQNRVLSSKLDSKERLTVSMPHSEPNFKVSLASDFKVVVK

B1: Helicobacter pylori UreE(1-158), C-terminal truncation variant (domain or fragment, UniProt Q09064 1-158, looked up)
chain: MIIERLVGNLRDLNPLDFSVDHVDLEWFETRKKIARFKTRQGKDIAIRLKDAPKLGLSQGDILFKEEKEIIAVNILDSEVIHIQAKSVAEVAKICYEIGNRHAALYYGESQFEFKTPFEKPTLALLEKLGVQNRVLSSKLDSKERLTVSMPHSEPNFK
B2: Helicobacter pylori HypA with C-terminal Strep-tag II (HypAstr) (natural protein, UniProt P0A0U4 1-117, looked up)
chain: MHEYSVVSSLIALCEEHAKKNQAHKIERVVVGIGERSAMDKSLFVSAFETFREESLVCKDAILDIVDEKVELECKDCSHVFKPNALDYGVCEKCHSKNVIITQGNEMRLLSLEMLAE
B3: Helicobacter pylori UreG (enzyme)
chain: MVKIGVCGPVGSGKTALIEALTRHMSKDYDMAVITNDIYTKEDAEFMCKNSVMPRERIIGVETGGCPHTAIREDASMNLEAVEEMHGRFPNLELLLIESGGDNLSATFNPELADFTIFVIDVAEGDKIPRKGGPGITRSDLLVINKIDLAPYVGADLKVMERDSKKMRGEKPFIFTNIRAKEGLDDVIAWIKRNALLED
B4: Helicobacter pylori UreE(1-148), C-terminal truncation variant (domain or fragment, UniProt Q09064 1-148, looked up)
chain: MIIERLVGNLRDLNPLDFSVDHVDLEWFETRKKIARFKTRQGKDIAIRLKDAPKLGLSQGDILFKEEKEIIAVNILDSEVIHIQAKSVAEVAKICYEIGNRHAALYYGESQFEFKTPFEKPTLALLEKLGVQNRVLSSKLDSKERLTV

The series “crystal structure” deals with the molecule itself. Kind of series: crystal structure.
In the series “Helicobacter pylori UreG” the target is B3. The experiment in a line: crystal structure.
The target in series [1] is T1, Helicobacter pylori UreE, wild-type …. Kind of series: pull-down.

Turning to B1, the binding result in “crystal structure” and in the series with Helicobacter pylori UreG was “binds” each time. For the molecule B2, the binding result in series [1] is listed as “binds”. Turning to B3, the binding result in the series “crystal structure” is listed as “binds”.

For the molecule B4, the binding result in the series “crystal structure” and in the series with Helicobacter pylori UreG was “binds” each time.
